Like-named read-outs stand apart in the source and are kept apart here.
Key:
[1] = cited from earlier work; for half-life in human serum: following subcutaneous administration
[2] = Predicted human plasma concentration profiles of GLP-1 agonists dosed by periodic injection, model fitted to published human pharmacokinetic data; conditions: for peak-trough / peak relative to mean: periodic injection dosed according to prescribers' information; for d[drug]/dt: periodic injection, percent of steady state mean concentration per hour
Source text: Two compartments (SC and Central) are contemplated. A constant fraction of SC drug enters the Central compartment per unit time (defined by Ka). A constant fraction of Central drug is eliminated per unit time (defined by K). Central drug concentration (equal to plasma drug concentration) is an amount of drug in the Central compartment (A) diluted into its volume of distribution (Vd).
Plasma concentrations are each expressed as a fraction of […] plasma concentration i.e., steady state concentration (Css). The predictions are based upon published human pharmacokinetic data, with either raw plasma concentration data or data digitized from published figures for a single subcutaneous dose. The plasma concentrations were fitted to a model describing “absorption+single component decay” for each agent, as depicted in FIG. 13, based upon a rate constant for absorption from a subcutaneous depot into the plasma, and another rate constant for elimination from the plasma compartment. Data were fit using non-linear regression via an iterative least-squares method within Prism v7.0 (GraphPad Software Inc., San Diego, Calif.).
The derived plasma concentration profile for a single subcutaneous bolus was extended from the time of dosing until plasma concentrations were negligible. This profile was serially added to itself, staggered by a period determined by the indicated dose interval, and in a magnitude determined by the recommended dose increases. The numeric sum is shown as the black line in each plot.
(§1) Rate of change of drug concentration, particularly positive rate of change, d[drug]/dt, was derived as the first differential of the plasma concentration profile summed as described above. The d[drug]/dt was expressed with “d[drug]” units reduced to percent of steady state mean concentration of indicated doses, to enable comparisons between agents with differing potencies and pharmacokinetics. The “dt” units were hours. The X-axes in FIGS. 10 and 12 represent the d[drug]/dt thus obtained, in units of “% of steady-state mean (i.e., Css) per hour”.

[3] = patients, cited from earlier work
human GLP-1 receptors = target: T1, human GLP-1 receptors (Homo sapiens, UniProt P43220); test: Albumin binding assessed by potency shift: cAMP activation of GLP-1 receptors expressed in CHO-K1 cells at different HSA concentrations; assay type: cell-based; conditions: potency decreased with increasing albumin concentration; final HSA 0-4%
T1 construct: expressed in transfected cells; host or cells: CHO-K1 (transient transfection, Lipofectamine 2000)
T1 sequence (P43220 24-463): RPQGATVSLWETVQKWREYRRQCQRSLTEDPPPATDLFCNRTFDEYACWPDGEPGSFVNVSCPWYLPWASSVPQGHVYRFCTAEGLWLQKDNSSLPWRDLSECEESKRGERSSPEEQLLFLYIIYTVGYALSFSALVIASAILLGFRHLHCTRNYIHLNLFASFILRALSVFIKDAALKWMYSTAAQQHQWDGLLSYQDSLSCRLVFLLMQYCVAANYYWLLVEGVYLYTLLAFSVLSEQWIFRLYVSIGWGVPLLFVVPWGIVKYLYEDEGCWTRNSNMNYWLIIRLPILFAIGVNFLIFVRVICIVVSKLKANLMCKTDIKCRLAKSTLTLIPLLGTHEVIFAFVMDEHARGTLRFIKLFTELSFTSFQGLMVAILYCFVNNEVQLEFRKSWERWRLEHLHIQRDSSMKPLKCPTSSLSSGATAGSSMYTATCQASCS
Source text: EC50 values were converted to pEC50 values using the formula: pEC50=−Log(EC50).

[4] = Estimated d[drug]/dt if administered via single subdermal placement of an osmotic drug delivery device; set-up: species or system human
Source text: as §1

[5] = periodic injection of aqueous solution
[6] = periodic injection (weekly aqueous solution)

For GLP-1, the t1/2 ([1]; peptidase prone GLP-1, by contrast to exenatide) is listed as roughly 3.4 min.
For albiglutide, the peak-trough [2] is listed as 28 % of peak and the half-life ([1]; in humans) is listed as 140 to 190 h.
For “des-Pro^36-exendin-4(1-39)-Lys6-NH2 [lixisenatide]”, the “peak relative to mean” value [2] was 2.4 × mean, the peak-trough [2] was 97 % of peak and the Tmax [2, 5] was roughly 1.7 h. The t1/2 [2, 5] was roughly 3.0 h, the “d[drug]/dt” value [2] was 204 % mean/hour and the nausea ([3]; daily injection, in 24 weeks) was 26%. The vomiting ([3]; daily injection, in 24 weeks) was 11%, the “half-life in human serum” value [1] was “approximately several hours” and the terminal half-life ([1]; humans, subcutaneous administration) was “approximately 3 h”.
For dulaglutide, the peak-trough [2] was 63 % of peak.
In the case of semaglutide, the Tmax [2, 6] is reported as roughly 76.8 h, the t1/2 [2, 6] is reported as roughly 199 h and the “peak relative to mean” value [2] is reported as 1.12 × mean. For the same substance, the peak-trough [2] was 26 % of peak, the “d[drug]/dt” value [2] was 3.3 % mean/hour and the “albumin (HSA) concentration at mid-range of the potency change” value (human GLP-1 receptors) was roughly 0.6%. The “d[drug]/dt, times lower than d[exenatide]/dt” value [4] was 35 ×, the nausea reported ([3]; weekly injection) was 22% and the withdrawn ([3]; weekly injection) was 6%. The “half-life in human serum” value [1] was roughly 165 h.

— US20200188479A1, “APPARATUS AND METHODS FOR ADMINISTRATION OF A NAUSEOGENIC COMPOUND FROM A DRUG DELIVERY DEVICE” (INTARCIA THERAPEUTICS, INC., priority 2017, published 2020)
